As a reminder, the EC50 (read off the curve) is the concentration at which the effect is half-maximal. High values mean a less potent agent, low ones a more potent agent. Usually EC50 stands for the concentration that produces a half-maximal response. Low values mean greater potency, high ones weaker potency.

Experimental findings from patent US20240343803A1 (SHANDONG SIMCERE BIOPHARMACEUTICAL, published 2024) are described below.

Assay [1] concerns the target T1, human PVRIG-his (AcroBiosystems, Cat NO. PVG-H52H4) (human, UniProt Q6DKI7 41-171, limits assumed).
T1 construct: treated as the same protein; also called human PVRIG-His protein; Human PVRIG-His, Acro C227P1-9ARF1-T4
T1 sequence (looked up): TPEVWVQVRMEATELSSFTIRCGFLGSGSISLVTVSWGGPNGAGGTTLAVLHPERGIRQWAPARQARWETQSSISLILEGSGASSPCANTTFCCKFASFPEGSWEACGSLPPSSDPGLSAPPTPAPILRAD
The experiment in a line: ELISA, coated human PVRIG-his. (In an ELISA, binding on a coated surface is turned into a signal by an enzyme label.)

Assay [2] addresses T2, full-length human TIGIT on CHO-K1 cells (CHO-K1 human TIGIT) (human, UniProt Q495A1 22-244).
T2 construct: NCBI XP_024309156.1; entry includes the signal peptide; also called high expression strain 1D2; medium expression strain 2D10
T2 sequence: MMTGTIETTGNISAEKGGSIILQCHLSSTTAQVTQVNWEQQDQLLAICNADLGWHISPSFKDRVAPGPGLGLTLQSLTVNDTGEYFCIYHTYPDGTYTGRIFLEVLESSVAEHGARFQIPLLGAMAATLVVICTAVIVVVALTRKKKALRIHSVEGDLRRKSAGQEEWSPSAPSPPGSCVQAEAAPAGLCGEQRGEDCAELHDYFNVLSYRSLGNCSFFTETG
The experiment in a line: FACS, CHO-K1 human TIGIT high expression strain. The protocol:
(§1) The collected cells were washed once with PBS (Hyclone, Cat NO. SH30256), resuspended to 2×10⁵/50 μL with 1% BSA-PBS. The antibodies were diluted to 80 nM with 1% BSA-PBS (diluted by 3-fold serial dilution for 12 concentration points). The 50 μL cells were then mixed with 50 μL diluted antibodies, and then incubated at 4° C. for 60 minutes. […] After washing twice with PBS, the cell samples were resuspended with 1% BSA-PBS, 100 μL/well and then analyzed by flow cytometry (BD, Canto II).
Background: In flow cytometry, cells or beads pass a laser one at a time.

Assay [3] deals with T3, human TIGIT ECD-mFc (fusion protein of extracellular domain of human TIGIT and mouse IgG2a Fc fragment) (human).
T3 chain: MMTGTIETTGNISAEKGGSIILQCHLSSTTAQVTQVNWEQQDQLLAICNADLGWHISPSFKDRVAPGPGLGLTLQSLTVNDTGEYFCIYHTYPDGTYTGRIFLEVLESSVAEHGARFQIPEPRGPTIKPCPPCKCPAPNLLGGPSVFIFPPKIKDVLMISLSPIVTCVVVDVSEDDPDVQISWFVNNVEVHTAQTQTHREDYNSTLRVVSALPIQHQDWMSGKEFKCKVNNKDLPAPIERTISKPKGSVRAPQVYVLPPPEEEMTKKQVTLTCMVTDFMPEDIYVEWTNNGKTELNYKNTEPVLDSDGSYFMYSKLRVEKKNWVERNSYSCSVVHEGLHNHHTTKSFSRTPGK
The experiment in a line: competition cell ELISA; blocked: TIGIT ECD-mFc binding to CHO-K1 CD155 cells. As to the method:
After discarding the culture supernatant, the cells were fixed with a cell fixation solution (Beyotime, P0098), 50 μL/well, at room temperature for 1 hour. After washing once with 0.05% Tween 20-PBS on the Microplate Washer, the plate was added with 5% skim milk powder-PBS, 250 μL/well, and incubated at 37° C. for 2-4 hours. The plate was then washed 3 times with 0.05% Tween 20-PBS on the Microplate Washer. The sample were mixed with human TIGIT ECD-mFc (working concentration: 100 ng/mL) and incubated for 0.5 hour. The mixed solution of antigen and antibody was added to the cell plate (50 μL/well). The cells were incubated with the mixture at 37° C. for 1.5-2 hours and then washed with 0.05% Tween 20-PBS for 3 times on the Microplate Washer. […] After washing 3 times with 0.05% Tween 20-PBS on the Microplate Washer, the plate was added with TMB chromogenic solution (KPL, 52-00-03), 50 μL/well, and incubated at 37° C. for 10 minutes. 1M HCL, 50 µL/well, was then added into the plate to terminate the reaction, and the OD450 nm was read by a microplate reader (Biotek, Powerwave HT).

Assay [4] has as its target T2, full-length human TIGIT on CHO-K1 cells …. The experiment in a line: FACS, low expression strain. As to the method:
as §1, with “CAT #SH30256),” for “Cat NO. SH30256),”, “II). […] [0298] (c) The effect of anti-TIGIT chimeric antibodies blocking the interaction between Bio-CD155-His and CHO-K1 human TIGIT high expression cell strains detected by FACS” for “II).”

Assay [5] shares this target. The experiment in a line: FACS, medium expression strain. As to the method: as §1, with “CAT #SH30256),” for “Cat NO. SH30256),”, “II). […] [0298] (c) The effect of anti-TIGIT chimeric antibodies blocking the interaction between Bio-CD155-His and CHO-K1 human TIGIT high expression cell strains detected by FACS” for “II).”
The target in assay [6] is T4, Fusion protein of extracellular domain of human TIGIT and His-tag (human TIGIT ECD-his) (human).
T4 chain: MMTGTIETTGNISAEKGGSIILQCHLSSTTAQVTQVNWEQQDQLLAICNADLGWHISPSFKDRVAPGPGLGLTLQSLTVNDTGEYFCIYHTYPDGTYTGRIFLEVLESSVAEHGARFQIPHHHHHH
The assay is described as follows: BIAcore; KD ratio, by the numbers to TIGIT-005-H2L1 of r33.

B1: SRF813-hIgG1 (antibody, V domains shown)
VH: QVQLVQSGAEVKKPGSSVKVSCKASGGTFSSAAISWVRQAPGQGLEWMGNIIPIVGIANYAQKFQGRVTITADESTSTAYMELSSLRSEDTAVYYCARDTGRGYTRHFWFDPWGQGTLVTVSS
VL: DIQMTQSPSSLSASVGDRVTITCRASQSISSYLNWYQQKPGKAPKLLIYAASSLQSGVPSRFSGSGSGTDFTLTISSLQPEDFATYYCQQSDILYTFGGGTKVEIK
notes: human IgG1 format by its name
In the case of B1, in assay [1], the “EC50 (read off the curve)” value is around 0.05 nM.

B2: RG6058-hIgG1 (antibody, V domains shown)
VH: EVQLQQSGPGLVKPSQTLSLTCAISGDSVSSNSAAWNWIRQSPSRGLEWLGKTYYRFKWYSDYAVSVKGRITINPDTSKNQFSLQLNSVTPEDTAVFYCTRESTTYDLLAGPFDYWGQGTLVTVSS
VL: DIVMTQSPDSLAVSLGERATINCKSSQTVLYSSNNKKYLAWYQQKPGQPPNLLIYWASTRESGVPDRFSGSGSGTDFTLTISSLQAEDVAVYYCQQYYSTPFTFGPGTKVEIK
notes: human IgG1 format by its name; also called Roche RG6058; control antibody RG6058
Take B2: in assay [2], the “EC50 (read off the curve)” value was around 0.6 nM. The “IC50 (read off the curve)” value in assay [3] was around 0.6 nM. Also, the results for the EC50 in assay [4] and in assay [5] were 0.495 nM and 0.616 nM, respectively.

B3: TIGIT-005-H2L1d (antibody, V domains shown)
VH: EVQLVQSGAEVKKPGASVKVSCKASGYAFTNYLIEWVRQAPGQRLEWMGVINPGSGGTNYKEKFKGRVTITADKSSSTAYMELSSLRSEDTAVYYCARGEYFFFDYWGQGTTVTVSS
VL: DIVMTQSPDSLAVSLGERATINCKASQHVSNAVAWYQHKPGQSPKLLIYSASYRYTGVPDRFSGSGSGTDFTLTISSLQAEDVAVYYCQQHYNTPHTFGGGTKVEIK
notes: Humanized anti-TIGIT antibody with NG-site mutation in VL
Turning to B3, the “Fold change vs chimeric antibodies (KD)” value in assay [6] came out at 1.21 fold.
